Assay [1] addresses human TREM2 on primary cells (human) (UniProt Q9NZC2). Kind of assay: FACS, primary hMAC; isotype control.
The target is the same in assay [2]. Nature of the assay: FACS, primary hDC; isotype control.
In assay [3] the target is recombinant human TREM2-DAP12 fusion protein expressed on cells (human). Kind of assay: FACS, HEKhT2 cells; isotype control. (In general: A flow cytometer gives signals particle by particle.)
Assay [4] addresses mouse TREM2 on cells (mouse) (UniProt Q99NH8). Kind of assay: FACS, BWZmT2 cells; isotype control.
Assay [5] shares this target. Nature of the assay: FACS, WT mouse macrophages; isotype control.
Assay [6] deals with TREM2 protein of the 'Percent APOE binding' column of Table 9B. Nature of the assay: TREM2 binding to APOE with isotype control.
For assay [7], the target named is mouse TREM2 on cells (mouse) (UniProt Q99NH8). Kind of assay: FACS, WT mouse macrophages.
Chain of mouse TREM2 on cells (mouse) (Q99NH8 19-227 limits assumed): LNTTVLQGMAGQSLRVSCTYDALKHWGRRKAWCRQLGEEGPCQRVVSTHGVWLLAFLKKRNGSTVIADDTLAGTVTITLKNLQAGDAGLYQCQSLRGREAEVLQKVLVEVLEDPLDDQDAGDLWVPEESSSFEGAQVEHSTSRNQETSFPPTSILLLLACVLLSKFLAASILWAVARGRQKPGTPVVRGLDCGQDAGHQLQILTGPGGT
Assay [8] deals with TREM2 protein of the 'Percent APOE binding' column of Table 9B. Kind of assay: TREM2 binding to APOE with antibody.

This note sets out measurements from patent US20230295297A1.

Chain of human TREM2 on primary cells (human) (Q9NZC2 19-230): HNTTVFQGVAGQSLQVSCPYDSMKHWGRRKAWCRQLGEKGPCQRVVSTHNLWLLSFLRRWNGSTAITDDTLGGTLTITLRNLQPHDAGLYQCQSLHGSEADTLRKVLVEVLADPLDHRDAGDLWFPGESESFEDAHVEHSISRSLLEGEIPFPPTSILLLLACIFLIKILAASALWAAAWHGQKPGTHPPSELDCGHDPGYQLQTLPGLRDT
Chain of recombinant human TREM2-DAP12 fusion protein expressed on cells (human) (chain, as listed by the source limits assumed, form in doubt): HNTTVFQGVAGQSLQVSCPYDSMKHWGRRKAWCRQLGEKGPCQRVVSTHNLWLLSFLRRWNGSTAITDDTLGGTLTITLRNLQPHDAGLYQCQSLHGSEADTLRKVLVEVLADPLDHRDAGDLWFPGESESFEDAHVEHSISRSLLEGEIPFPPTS

mouse IgG2b isotype control antibody came in with a % Positive hMAC in assay [1] of 5.3%. The same substance registered a % Positive hDC in assay [2] of 6.1%. Moreover, in assay [3], the MFI HEKhT2 amounted to 13 MFI.

Take mouse IgG1 isotype control antibody: in assay [1], the % Positive hMAC came out at 2.7%. Besides, the MFI BWZmT2 in assay [4] is 278 MFI. This substance also registered a % Positive hDC in assay [2] of 4.9%. Further, the MFI HEKhT2 in assay [3] came out at 16.3 MFI. This substance displayed a % Positive WT BMMACS in assay [5] of 0.574%. Further, in assay [6], the Percent APOE binding turned out to be 90.8%.

For the substance rat IgG1 isotype control antibody, in assay [1], the % Positive hMAC turned out to be 19.6%. In addition, the % Positive hDC in assay [2] worked out at 8.7%. For the same substance, the MFI HEKhT2 in assay [3] worked out at 544 MFI.

Substance mouse IgG2a isotype control antibody gave a % Positive hMAC in assay [1] of 7.9%. Moreover, the % Positive hDC in assay [2] came to 7.3%. In addition, the MFI HEKhT2 in assay [3] was 40.3 MFI.

In assay [1], mouse IgM isotype control antibody yielded a % Positive hMAC of 63.7%. For the same substance, the % Positive hDC in assay [2] came out at 14.9%. In assay [3], the MFI HEKhT2 was 124 MFI.

With “commercial anti-TREM2 antibody (R&D Cat #F7E57291)”, the % Positive WT BMMACS in assay [7] worked out at 13.1%. Besides, the Percent APOE binding in assay [8] stood at 106%.

rat IgG2a isotype control antibody displayed a % Positive hMAC in assay [1] of 10.4%. Further, in assay [2], the % Positive hDC was 6.2%. Also, the MFI HEKhT2 in assay [3] was 33 MFI.

In the case of rat IgG2b isotype control antibody, the % Positive hMAC in assay [1] was found to be 0.9%. The % Positive hDC in assay [2] turned out to be 0.3%. In assay [3], the MFI HEKhT2 amounted to 35 MFI. In assay [6], this substance returned a Percent APOE binding of 102%.
